The target of the test is IL-1 receptors on the surface of HIG-82 synoviocytes (rabbit (endogenous in HIG-82)). The test can be described thus: flow cytometry on cells. Background: A flow cytometer gives signals particle by particle.

We go through 1 substance from publication PMC3418443.

Sequence of IL-1β (P01584 117-269): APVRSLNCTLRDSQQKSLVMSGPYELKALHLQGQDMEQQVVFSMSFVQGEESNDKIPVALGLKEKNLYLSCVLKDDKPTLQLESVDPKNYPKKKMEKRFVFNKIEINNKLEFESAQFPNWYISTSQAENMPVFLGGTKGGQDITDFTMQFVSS

In turn, “IL-1β (from UniProt P01584 117-269) (ligand)” showed a % cells with bound IL-1Ra-particles after pre-block with IL-1β of 2.8%.
